These results are taken from paper PMC10412687.

The target of experiment [1] is RNase E C-terminal domain (residues 451-898) with C-terminal eYFP (Caulobacter crescentus). Description: partitioning of a fluorescent client into condensates (fluorescence microscopy), peptide competition; PNPase incubated with peptide (GWW or scrambled, 0 to 200 µM) before adding RNase E to form droplets; 20 mM Tris pH 7.5, 1 mM MgCl2, 10 mM Na2HPO4 pH 7.5, 100 mM NaCl (120 mM NaCl in Fig. S2), 10% PEG 8000 (Figs. S2, S3).

Experiment [2] shares this target. Description: partitioning of a fluorescent client into condensates (fluorescence microscopy); RNase E CTD condensates as scaffold, PNPase-mCherry variants as clients; 20 mM Tris pH 7.5, 20 mM MgCl2, 4 mM Na2HPO4 pH 7.5, 70 mM NaCl, 0.5 mM DTT; 30 min at room temperature; partitioning ratio (Fig. 3).
The target is the same in experiment [3]. The experiment is described as follows: partitioning of a fluorescent client into condensates (fluorescence microscopy); 20 µM RNase E CTD-eYFP (or ∆PNP-BS) condensates as scaffold, mCherry-labelled client; 20 mM Tris pH 7.5, 1 mM MgCl2, 10 mM Na2HPO4 pH 7.5, 100 mM NaCl, 10% PEG 8000; 30 min at room temperature; partitioning ratio = mean droplet signal / mean non-droplet signal (Figs. 2, S1).

“PNPase-mCherry as used in the peptide competition and poly(A) recruitment microscopy (from UniProt Q9AC32 1-712) (enzyme)”: in experiment [1], the partitioning ratio (without peptide) worked out at 2.8 and the partitioning ratio with 100 µM GWW peptide is 1.7.

B1: PNPase-S439A/S440A/S441A-mCherry (PNPase active site mutant) (enzyme)
chain: MFDIKRKTIEWGGKTLVLETGRIARQADGAVLATMGETVVLATAVFAKSQKPGQDFFPLTVNYQEKTFAAGKIPGGFFKREGRPSEKETLVSRLIDRPIRPLFVKGFKNEVQVVVTVLQHDLENDPDILGMVAASAALCLSGAPFMGPIGAARVGWVDGAYVLNPTLDEMKESKMDLVVAGTADAVMMVESEIQELSEEIVLGGVNFAHQQMQAVIDAIIDLAEHAAKEPFAFEPEDTDAIKAKMKDLVGADIAAAYKIQKKQDRYEAVGAAKKKAIAALGLSDENPTGYDPLKLGAIFKELEADVVRRGILDTGLRIDGRDVKTVRPILGEVGILPRTHGSALFTRGETQAIVVATLGTGDDEQFIDALEGTYKESFLLHYNFPPYSVGETGRMGSPGRREIGHGKLAWRALRPMLPTKEDFPYTIRLVSEITESNGAAAMATVCGSSLAMMDAGVPLVRPVSGIAMGLILEQDGFAVLSDILGDEDHLGDMDFKVAGTSEGLTSLQMDIKIAGITPAIMEQALAQAKEGRAHILGEMNKAMDAPRADVGDFAPKIETINIPTDKIREVIGSGGKVIREIVATTGAKVDINDDGVVKVSASDGAKIKAAIDWIKSITDEAEVGKIYDGKVVKVVDFGAFVNFFGAKDGLVHVSQISNERVAKPSDVLKEGQMVKVKLLGFDDRGKTKLSMKVVDQETGEDLSKKEAAAEEA
Take B1: the figures for the partitioning ratio in experiment [2] and in experiment [3] were 4.4 and 5.7, respectively.

B2: PNPase-V104A/E224A/F233A-mCherry (enzyme)
chain: MFDIKRKTIEWGGKTLVLETGRIARQADGAVLATMGETVVLATAVFAKSQKPGQDFFPLTVNYQEKTFAAGKIPGGFFKREGRPSEKETLVSRLIDRPIRPLFAKGFKNEVQVVVTVLQHDLENDPDILGMVAASAALCLSGAPFMGPIGAARVGWVDGAYVLNPTLDEMKESKMDLVVAGTADAVMMVESEIQELSEEIVLGGVNFAHQQMQAVIDAIIDLAAHAAKEPFAAEPEDTDAIKAKMKDLVGADIAAAYKIQKKQDRYEAVGAAKKKAIAALGLSDENPTGYDPLKLGAIFKELEADVVRRGILDTGLRIDGRDVKTVRPILGEVGILPRTHGSALFTRGETQAIVVATLGTGDDEQFIDALEGTYKESFLLHYNFPPYSVGETGRMGSPGRREIGHGKLAWRALRPMLPTKEDFPYTIRLVSEITESNGSSSMATVCGSSLAMMDAGVPLVRPVSGIAMGLILEQDGFAVLSDILGDEDHLGDMDFKVAGTSEGLTSLQMDIKIAGITPAIMEQALAQAKEGRAHILGEMNKAMDAPRADVGDFAPKIETINIPTDKIREVIGSGGKVIREIVATTGAKVDINDDGVVKVSASDGAKIKAAIDWIKSITDEAEVGKIYDGKVVKVVDFGAFVNFFGAKDGLVHVSQISNERVAKPSDVLKEGQMVKVKLLGFDDRGKTKLSMKVVDQETGEDLSKKEAAAEEA
Consider B2, for which the partitioning ratio in experiment [2] came to 1.
